From patent US7282556B2, “Polynucleotides and polypeptides relating to the modulation of SIRPα-CD47” (Emory University, priority 2001, dated 2007)

Target: T1, CD47-SIRPα1 binding (CD47-AP / SIRPα1-GST) (Homo sapiens, UniProt P78324)
T1 construct: Microtiter plates were coated with SIRPα1 extracellular domain fusion protein (SIRPα1-GST, 1 μg/ml) for 2 hr; A construct consisting of the extracellular domain of human CD47 fused to the catalytic domain of human placental AP; made in house
Test: CD47-AP binding to immobilized SIRPα1-GST (alkaline phosphatase activity)
Details: SIRPα-GST coated 2 μg/ml, CD47-AP 1-2 μg/ml
Experimental: FIG. 2C (right panel) is a bar graph that illustrates CD47-AP specifically binds to SIRPα-GST fusion protein but not SIRPβ-GST. In this panel, microtiter plates were coated with either SIRPα-GST or highly similar SIRPβ-GST (10 μg/ml) followed by blocking with BSA. To each well was then added recombinant CD47-AP followed by washing. Bound CD47-AP was then detected by assay for alkaline phosphatase after addition of appropriate substrate.
FIGS. 6A-6C are graphs that illustrate the effects of synthetic peptides on CD47-SIRPα binding. FIG. 6A illustrates the effect of peptide C5/D5.1 on CD47-SIRPα binding. […] After blocking, CD47-AP was added in the absence or presence of synthetic peptides C5/D5.1 and control peptides C5/D5.4, C5/D5.11 and C5/D5.12 (used as 1 mM each). “*” p<0.01. CD47-AP binding was then detected by assay of alkaline phosphatase activity and normalized with respect to binding in the absence of any peptide (CD47-AP only). FIG. 6B illustrates the effect of dose-dependent inhibition of CD47-SIRPα1 binding by peptide C5/D5.1 performed as in FIG. 6A but with increasing concentrations of peptide as indicated. […] Binding of these proteins were detected by a goat anti-GST antibody followed by peroxidase conjugated anti-goat secondary (for detecting SIRPα1-GST) or directly developed for alkaline phosphatase activity (for detecting CD47-AP). […]

T1 sequence (P78324 31-373 limits assumed): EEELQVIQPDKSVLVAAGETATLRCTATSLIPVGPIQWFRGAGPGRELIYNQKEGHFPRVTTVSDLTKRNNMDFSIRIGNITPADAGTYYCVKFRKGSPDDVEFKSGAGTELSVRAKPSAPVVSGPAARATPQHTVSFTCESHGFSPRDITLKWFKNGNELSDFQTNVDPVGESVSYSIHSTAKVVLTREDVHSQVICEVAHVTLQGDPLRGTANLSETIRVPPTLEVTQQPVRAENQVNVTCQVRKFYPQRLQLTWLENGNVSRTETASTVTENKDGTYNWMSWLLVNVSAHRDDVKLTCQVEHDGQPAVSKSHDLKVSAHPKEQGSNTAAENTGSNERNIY

B1: JAM-AP: control AP fusion protein containing the extracellular domain of junction adhesion molecule (protein)
chain: SVTVHSSEPEVRIPENNPVKLSCAYSGFSSPRVEWKFDQGDTTRLVCYNNKITASYEDRVTFLPTGITFKSVTREDTGTYTCMVSEEGGNSYGEVKVKLIVLVPPSKPTVNIPSSATIGNRAVLTCSEQDGSPPSEYTWFKDGIVMPTNPKSTRAFSNSSYVLNPTTGELVFDPLSASDTGEYSCEARNGYGTPMTSNAVRMEAVERNVGV
modifications: left off: large carriers
notes: control AP fusion protein containing the extracellular domain of junction adhesion molecule
  binding of AP fusion protein to SIRPα-GST (AP activity, OD405): absence of binding
